In patent US20030113787A1 (Takeda / Millennium, published 2003):

B1: CARD-9-CARD/BD (other, yeast)
chain: MKLLSSIEQACDICRLKKLKCSKEKPKCAKCLKNNWECRYSPKTKRSPLTRAHLTEVESRLERLEQLFLLIFPREDLDMILKMDSLQDIKALLTGLFVQDNVNKDAVTDRLASVETDMPLTLRQHRISATSSSEESSNKGQRQLTVSMSDYENDDECWNVLEGFRVTLTSVIDPSRITPYLRQCKVLNPDDEEQVLSDPNLVIRKRKVGVLLDILQRTGHKGYVAFLESLELYYPQLYKKVTGKEPARVFSMIIDAS
B2: CARD-9-CARD/AD (other, mouse)
chain: SPMLLPSGQISNQALALAPSSAPVLAQTMVPSSAMVPLAQPPAPAPVLTPGPPQSLSAPVPKSTQAGEGTLSEALLHLQFDADEDLGALLGNSTDPGVFTDLASVDNSEFQQLLNQGVSMSHSTAEPMLMEYPEAITRLVTGSQRPPDPAPTPLGTSGLPNGLSGDEDFSSIADMDFSALLSQISSMSDYENDDECWNVLEGFRVTLTSVIDPSRITPYLRQCKVLNPDDEEQVLSDPNLVIRKRKVGVLLDILQRTGHKGYVAFLESLELYYPQLYKKVTGKEPARVFSMIIDAS
B3: CARD-11-CARD fused to the NF-kB activation domain (pCMV-CARD-11/AD) (other, mouse)
chain: SPMLLPSGQISNQALALAPSSAPVLAQTMVPSSAMVPLAQPPAPAPVLTPGPPQSLSAPVPKSTQAGEGTLSEALLHLQFDADEDLGALLGNSTDPGVFTDLASVDNSEFQQLLNQGVSMSHSTAEPMLMEYPEAITRLVTGSQRPPDPAPTPLGTSGLPNGLSGDEDFSSIADMDFSALLSQISSEEDALWENVECNRHMLSRYINPAKLTPYLRQCKVIDEQDEDEVLNAPMLPSKINRAGRLLDILHTKGQRGYVVFLESLEFYYPELYKLVTGKE
B4: RICK CARD domain (residues 417-540) in pCMV-BD (other, UniProt P04386 1-147, looked up)
chain: MKLLSSIEQACDICRLKKLKCSKEKPKCAKCLKNNWECRYSPKTKRSPLTRAHLTEVESRLERLEQLFLLIFPREDLDMILKMDSLQDIKALLTGLFVQDNVNKDAVTDRLASVETDMPLTLRQHRISATSSSEESSNKGQRQLTVSAIINPLSTAGNSERLQPGIAQQWIQSKREDIVNQMTEACLNQSLDALLSRDLIMKEDYELVSTKPTRTSKVRQLLDTTDIQGEEFAKVIVQKLKDNKQMGLQPYPEILVVSRSPSLNLLQNKSM
notes: range 1-147;range 417-540; Member of the two-hybrid CARD panel
B5: ARC CARD domain (residues 1-110) in pCMV-BD (other, UniProt P04386 1-147, looked up)
chain: MKLLSSIEQACDICRLKKLKCSKEKPKCAKCLKNNWECRYSPKTKRSPLTRAHLTEVESRLERLEQLFLLIFPREDLDMILKMDSLQDIKALLTGLFVQDNVNKDAVTDRLASVETDMPLTLRQHRISATSSSEESSNKGQRQLTVSMGNAQERPSETIDRERKRLVETLQADSGLLLDALLARGVLTGPEYEALDALPDAERRVRRLLLLVQGKGEAACQELLRCAQRTAGAPDPAWDWQHVGPGYRDRSYDPPCP
notes: range 1-147;range 1-110; Member of the two-hybrid CARD panel
B6: CARD-4 CARD domain (residues 1-119) in pCMV-BD (other, UniProt P04386 1-147, looked up)
chain: MKLLSSIEQACDICRLKKLKCSKEKPKCAKCLKNNWECRYSPKTKRSPLTRAHLTEVESRLERLEQLFLLIFPREDLDMILKMDSLQDIKALLTGLFVQDNVNKDAVTDRLASVETDMPLTLRQHRISATSSSEESSNKGQRQLTVSMEEQGHSEMEIIPSESHPHIQLLKSNRELLVTHIRNTQCLVDNLLKNDYFSAEDAEIVCACPTQPDKVRKILDLVQSKGEEVSEFFLYLLQQLADAYVDLRPWLLEIGFSPSLLTQSKV
notes: range 1-147;range 1-119; Member of the two-hybrid CARD panel
B7: RAIDD CARD domain (residues 1-108) in pCMV-BD (other, UniProt P04386 1-147, looked up)
chain: MKLLSSIEQACDICRLKKLKCSKEKPKCAKCLKNNWECRYSPKTKRSPLTRAHLTEVESRLERLEQLFLLIFPREDLDMILKMDSLQDIKALLTGLFVQDNVNKDAVTDRLASVETDMPLTLRQHRISATSSSEESSNKGQRQLTVSMEARDKQVLRSLRLELGAEVLVEGLVLQYLYQEGILTENHIQEINAQTTGLRKTMLLLDILPSRGPKAFDTFLDSLQEFPWVREKLKKAREEAMTDLPAGDRLTGIPS
notes: range 1-147;range 1-108; Member of the two-hybrid CARD panel
B8: caspase-12 CARD domain (residues 1-121) in pCMV-BD (other, UniProt P04386 1-147, looked up)
chain: MKLLSSIEQACDICRLKKLKCSKEKPKCAKCLKNNWECRYSPKTKRSPLTRAHLTEVESRLERLEQLFLLIFPREDLDMILKMDSLQDIKALLTGLFVQDNVNKDAVTDRLASVETDMPLTLRQHRISATSSSEESSNKGQRQLTVSMAARRTHERDPIYKIKGLAKDMLDGVFDDLVEKNVLNGDELLKIGESASFILNKAENLVENFLEKTDMAGKIFAGHIANSQEQLSLQFSNDEDDGPQKICTPSSPSESKRKVEDDEMEVNA
notes: range 1-147;range 1-121; Member of the two-hybrid CARD panel
B9: ASC CARD domain (residues 92-195) in pCMV-BD (other, UniProt P04386 1-147, looked up)
chain: MKLLSSIEQACDICRLKKLKCSKEKPKCAKCLKNNWECRYSPKTKRSPLTRAHLTEVESRLERLEQLFLLIFPREDLDMILKMDSLQDIKALLTGLFVQDNVNKDAVTDRLASVETDMPLTLRQHRISATSSSEESSNKGQRQLTVSGSGAAPAGIQAPPQSAAKPGLHFIDQHRAALIARVTNVEWLLDALYGKVLTDEQYQAVRAEPTNPSKMRKLFSFTPAWNWTCKDLLLQALRESQSYLVEDLERS
notes: range 1-147;range 92-195; Member of the two-hybrid CARD panel
B10: Apaf-1 CARD domain (residues 1-108) in pCMV-BD (other, UniProt P04386 1-147, looked up)
chain: MKLLSSIEQACDICRLKKLKCSKEKPKCAKCLKNNWECRYSPKTKRSPLTRAHLTEVESRLERLEQLFLLIFPREDLDMILKMDSLQDIKALLTGLFVQDNVNKDAVTDRLASVETDMPLTLRQHRISATSSSEESSNKGQRQLTVSMDAKARNCLLQHREALEKDIKTSYIMDHMISDGFLTISEEEKVRNEPTQQQRAAMLIKMILKKDNDSYVSFYNALLHEGYKDLAALLHDGIPVVSSSSGKDSVSGITS
notes: as for B7
B11: Bcl-10-CARD/BD (other, UniProt P04386 1-147, looked up)
chain: MKLLSSIEQACDICRLKKLKCSKEKPKCAKCLKNNWECRYSPKTKRSPLTRAHLTEVESRLERLEQLFLLIFPREDLDMILKMDSLQDIKALLTGLFVQDNVNKDAVTDRLASVETDMPLTLRQHRISATSSSEESSNKGQRQLTVSMEPTAPSLTEEDLTEVKKDALENLRVYLCEKIIAERHFDHLRAKKILSREDTEEISCRTSSRKRAGKLLDYLQENPKGLDTLVESIRREKTQNFLIQKITDEVL
notes: range 1-147;range 1-104; Two-hybrid construct in pCMV-BD; also called CARD of Bcl-10; CARD of Bcl10

molecular target: Bcl-10 dominant negative deletion mutant (amino acids 1-104) (UniProt O95999); experiment: cell-based or functional assay

Molecule | NF-κB activity (luciferase reporter) left with dominant negative Bcl-10 (times above background) | NF-κB activity (luciferase reporter), reduction by dominant negative Bcl-10 [fold]
human CARD-11 (from UniProt Q9BXL7 8-1154) | 1.7 | 4
human CARD-10 (from UniProt Q9BWT7 1-1032) | 10 | 35

molecular target: T1, Bcl-10-CARD/AD (mouse, UniProt Q04207 364-549; O95999 1-104); experiment: cell-based or functional assay
T1 sequence (looked up): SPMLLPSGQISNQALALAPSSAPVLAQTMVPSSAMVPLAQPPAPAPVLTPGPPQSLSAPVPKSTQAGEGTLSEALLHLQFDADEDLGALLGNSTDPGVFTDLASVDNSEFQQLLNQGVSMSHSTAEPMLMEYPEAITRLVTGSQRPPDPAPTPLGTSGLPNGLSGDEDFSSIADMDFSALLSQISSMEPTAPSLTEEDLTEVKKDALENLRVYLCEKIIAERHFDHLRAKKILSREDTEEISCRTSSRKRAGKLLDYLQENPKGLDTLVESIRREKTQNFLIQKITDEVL

Molecule | luciferase activity (mammalian two-hybrid reporter) [fold]
B1 | 75

molecular target: B11; experiment: cell-based or functional assay

Molecule | relative luciferase activity (mammalian two-hybrid reporter) [fold]
B2 | 250
B3 | 17

molecular target: B3; experiment: mammalian two-hybrid, 293T cells
Description: (§1) For the additional mammalian two-hybrid assays, 293T cells in 6-well plates (35-mm wells) were transfected with the following plasmids: 750 ng of pCMV-CARD-9/AD, 750 ng of pCMV-CARD/BD, 250 ng of pFR-Luc firefly reporter (Stratagene), and 250 ng of pRL-TK renilla reporter (Promega). For NF-?B assays, 293T cells were transfected with the following plasmids: 900 ng of pNF-kB luciferase reporter (Stratagene), 100 ng of pRL-TK renilla reporter (Promega) and 1000 ng of indicated expression plasmids. Cells were harvested 24 h after transfection, and firefly luciferase activity was determined using the Dual-Luciferase Reporter Assay System (Promega). In addition, renilla luciferase activity was determined and used to normalize transfection efficiencies.
(§2) To identify the binding partners of CARD-11, a mammalian two-hybrid analysis was performed using the CARD domains of 15 known proteins. For mammalian two-hybrid assays, 293T cells in 6-well plates (35-mm wells) were transfected with the following plasmids: 750 ng of pCMV-CARD-11/AD, 750 ng of pCMV-BD fused to individual CARD domains, 250 ng of pFR-Luc firefly reporter (Stratagene), and 250 ng of pRL-TK renilla reporter (Promega). pCMV-CARD-11 /AD and pCMV-CARD/BD plasmids were constructed by inserting individual CARD domains into pCMV-CARD/AD and pCMV-BD, respectively (Stratagene): Bcl-10 (residues 1-104), ARC (residues 1-110), RICK (residues 417-540), CARD-4 (residues 1-1 19), ASC (residues 92-195), caspase-I (residues 1-110), caspase-2 (residues 1-122), caspase-4 (residues 1-108), caspase-9 (residues 1-111), caspase-11 (residues 1-122), caspase-12 (residues 1-121), IAP-1 (residues 423-543), IAP-2 (residues 450-557), Apaf-1 (residues 1-108) and RAIDD (residues 1 -108). Cells were harvested 24 hours after transfection, and firefly luciferase activity was determined using the Dual-Luciferase Reporter Assay System (Promega). In addition, renilla luciferase activity was determined and used to normalize transfection efficiencies.

Molecule | binding result
B4 | no binding
B5 | no binding
B6 | no binding
B7 | no binding
B8 | no binding
B9 | no binding
B10 | no binding

molecular target: B2; experiment: mammalian two-hybrid, 293T cells
Description: as §1, §2

Molecule | binding result
B4 | no binding
B5 | no binding
B6 | no binding
B7 | no binding
B8 | no binding
B11 | binds
B9 | no binding
B10 | no binding
